Test results: the DeepSol protein solubility set

Test: soluble on expression in E. coli; label from the status in PepcDB or PDB records

| Sequence | soluble on expression in E. coli |
| --- | --- |
| MSLVETPKCTCGNHGVMNKKEKIIFACSGASNVGELSNAAAVRLTKEGFGNKACTASLAIKTPSVMERVENAGEIVVIDGCPVSCAKRIADNSGVKVDQYIIITELGINKISDMDILDEDITKTVSAVKDGKSVCLDRKRENHKGSGCNCGCESKEGHHHHHH | not soluble |
| MHGKDPFSDFREFINTMESRVQELGKAYGVEHLAGPQGFAVRYLFENQDKEIFIKDIEKKLSISKSVASNLVKRMEKNGFVELVTSDKDKRYKYVHLTDLGKKKAQDVGHFREAIHGQLLDGISKEDAETAFRVFHQIRKNLEKNKELEHHHHHH | soluble |
| MGHHHHHHSHMSPAPVIPSNTDYPGPHHFEVTFQQSSTAKSATWTYSPLLKKLYCQIAKTCPIQIKVSTPPPPGTAIRAMPVYKKAEHVTDVVKRCPNHELGRDFNEGQSAPASHLIRVEGNNLSQYVDDPVTGRQSVVVPYEPPQVGTEFTTILYNFMCNSSCVGGMNRRPILIIITLEMRDGQVLGRRSFEGRICACPGRDRKADEDHYREQQALNE | soluble |
| MGKATWRQVWERARALAGAAALAVLAGCAAPGAQDPGQARNTAREAYIYAYPMLYHYRSMYEQAIDTASPAYLGGFGVFQHRAEPYTPQSVDVATPNVDTLYSRAWLDLRAEPWVLSLPAVPKSRYNAFQLVDMYTYNLAYLGTRATGFGSGHYLIAGPGWTGPVPKGITQVVRADTDFVAVLGRTALNGPADIKAVHALQARYGLRPLSAYTGTAAPAGAPPVDWLPWNEQRASSIGFIAYLNQLLAHTQPQPESEADMMARFARIGVAPGRDFEPARLDAATRRAMDAGIVDAQQAIEQGARHAAAPATPASLYGSREQLGGDYLKRAVAAAVGIYGNTADEAIYLTIGEDAQGRPLDGARAYELRFAPGRQPPVRFFWSISVYALPARGLAENPIDRYAIGSRTKGIKRGRDGSLTVYLQHDAPARAHAPNWLPTPAGPFVVVARFYGPQPALRDGAWVMPALVPARLEHHHHHH | not soluble |
| MHYSQMRWMFFCLTALLHGSFIVNAAKILVYCPSISKSHVLLCSKYADLLHNAGHDTVLFIPSYSKLLDNYDGAKHAKVWRLHNVTEAYDTKLGTLANVMENSHIGFIDRLTFDADFWIDMCADLLGKLPEMQHIIDYKFDLVIYNEIDPCTPAIVRLFNIPKTVLLSSEAIMDKVAWNLGKPMTTFAES | not soluble |
| MCAALKRCAYRHKGKIMENTNIVTTEQQAPNTISASNAIFNVQALGQLTAFANLMADSQVTVPAHLAGKPADCMAIVMQAMQWGMNPYAVAQKTHLVNGVLGYEAQLVNAVIASSSAIHGRFHYRYGGDWERCTRTQEITRDKNGKNGKYTVTERVRGWTDEDEIGLFVQVGAILRGESEITWGEPLYLSGVVTRNSPLWVSNPKQQIAYLGVKYWARLYCPEVILGVYSPDEVEQREEREINPAPVQRMSVQEITSEVSTRTSAQESAANVDAVADDLRERIDTASSVDQAKAIRADIESQKALLGTALFTELKNKAVKRYYQVNAQNKVEAVINSIPNPGEPEAAEMFAKAESTLGAAKRHLGDELHDKYRVTLDDMKPEYIG | not soluble |
| MVAIFDICAYFNNSILVIVDIIMTELLEPAARASTQETLTDQIFKKIQSAIVSGEIAAGSKISEPELARVYGISRGPLREAIHRLEGQKLVERTAHVGARVVSLSHQQLRELYQIRENLEGLACRLAAQSIDKQQILNLRDVLHLHAQDPDFKEGKGYYLQEGQDDFHYCIIKNCGNKTLEKMLCDELYHLIRMYRVQYSKTPNRPHRALSEHLHILNAIAEGDTELAELLMRRHIAASYRNIEQHFI | not soluble |
| ESDSVEFNNAISYVNKIKTRFLDHPEIYRSFLEILHTYQKEQLHTKGRPFRGMSEEEVFTEVANLFRGQEDLLSEFGQFLPEAKR | soluble |
| MATSAMFILDLKGKTIISRNYRGDIDMTAIDKFIHLLMEKEEEGSAAPVLTYQDTNFVFIKHTNIYLVSACRSNVNVTMILSFLYKCVEVFSEYFKDVEEESVRDNFVVIYELLDEMMDFGFPQTTESRILQEYITQEGQKLISAPRPPMAVTNAVSWRSEGIKYRKNEVFLDVIESVNMLASANGTVLQSEIVGSVKMRVYLTGMPELRLGLNDKVLFEGSGRGKSKSVELEDVKFHQCVRLSRFDTDRTISFIPPDGAFELMSYRLTTVVKPLIWIETSIERHSHSRVSFIIKAKSQFKRRSTANNVEIIIPVPSDADSPKFKTSIGSVKYTPEQSAFVWTIKNFPGGKEYLLTAHLSLPSVMSEESEGRPPIKVKFEIPYFTTSGIQVRYLKIIEKSGYQALPWVRYITQNGEYEMRMK | not soluble |
| MVTAREVGRIGLRKLLQRIGIVAESMTPLATDPVEVTQLLDARWYDERLRALADELGRDPDSVRAEAAGYLREMAASLDERAVQAWRGFSRWLMRAYDVLVDEDQITQLRKLDRKATLAFAFSHRSYLDGMLLPEAILANRLSPALTFGGANLNFFPMGAWAKRTGAIFIRRQTKDIPVYRFVLRAYAAQLVQNHVNLTWSIEGGRTRTGKLRPPVFGILRYITDAVDEIDGPEVYLVPTSIVYDQLHEVEAMTTEAYGAVKRPEDLRFLVRLARQQGERLGRAYLDFGEPLPLRKRLQEMRADKSGTGSEIERIALDVEHRINRATPVTPTAVVSLALLGADRSLSISEVLATVRPLASYIAARNWAVAGAADLTNRSTIRWTLHQMVASGVVSVYDAGTEAVWGIGEDQHLVAAFYRNTAIHILVDRAVAELALLAAAETTTNGSVSPATVRDEALSLRDLLKFEFLFSGRAQFEKDLANEVLLIGSVVDTSKPAAAADVWRLLESADVLLAHLVLRPFLDAYHIVADRLAAHEDDSFDEEGFLAECLQVGKQWELQRNIASAESRSMELFKTALRLARHRELVDGADATDIAKRRQQFADEIATATRRVNTIAELARRQLEHHHHHH | not soluble |
| MSLDDLAQLANEVKASFVRLVNEDANSHMIGTAMSTIGRAFTQRIIELVEAELGAAPLPYCFVAFGSMGRDEQLIVTDQDNALILDDRYDVQQHGAYFAQFAELVCRGLDRCGYPLCDGEIMASNPKWRMTRKEWETCFADWIDNPNPQALLNASIFFDLDGVYGRTKWAEQLSGFIVRRARRNQRFLACLARNALNRTPPLGFFKNFVMEKDGRHNNSINLKRRGTAPLADLIRVHALAAGSRAKNSFERLDDVIEAGLLPQGKGKDLRDALEFIAMVRIRHQAIDVEQEGHHHHHH | not soluble |
| MTIHIDFLDETNEVTAEQIETIERLLAEAAALENVPDGAEVSVTFVDNERIRAMNRDYRGKDAPTDVLSFALEEEGEEEVHIVGADMPPVLGDIVISIPKAKEQAAAYGHSFMRELGFLAVHGFLHLLGYDHGTEEEERVMFAKQEDILARFGLTR | not soluble |
| MNASTSSPSQQLQQAINSTIDKECAVCYSEMILPTTIPSCGHKFCFICLKGVSVSNNGDCPICRGPIDSQIFKKPLQAVDLKMDIPGTPSAAAPDPVVKQEVDDEDVKPDVKKLQEELKKQQAAAAAQKMFWLYRGRHQGWWRFDPRIEKEIEEAFTHQMPMTEVTICGNPYIVDFSQMCQYPKNQSNYSRNVKYGSRLKVLKILAKIDRKSAF | not soluble |
| MKGVVEGQCGQQNALVGLANTFGTSNQRVAPSNAAASLLPSSSMGEQMANEFLRQQARTMAPTSFSMKSMQNNLPQASASSSLAANWTKEFQPRQNQLASQWSQQYTSSAPSMESAWRQVQAPSMTSTSSHQPITDAGMWSSEYLDTVDTSLTKSSGTQNWADDFMEQQDNYGMENTWKDAQAFEQRWEEIKRDMEKDESLQSPENYVYQEANPFTTMSDPLMEGDNLMRNGDIGNAMLAYEAAVQKDPQDARAWCKLGLAHAENEKDQLAMQAFQKCLQIDAGNKEALLGLSVSQANEGMENEALHQLDKWMSSYLGSNSTQVTTTPPLYSSFLDSDTFNRVEARFLDAARQQGATPDPDLQNALGVLYNLNRNFARAVDSLKLAISKNPTDARLWNRLGATLANGDHTAEAISAYREALKLYPTYVRARYNLGISCMQLSSYDEALKHFLSALELQKGGNDASGIWTTMRSAAIRTSNVPDNLLRAVERRDLAAVKASLV | not soluble |
| MTKDLLLELGLEELPAYVVTPSEKQLGQKMVKFLEDHRLSFETVQIFSTPRRLAVRVKGLADQQTDLTEDFKGPSKKIALDAEGNFSKAAQGFVRGKGLSVDDIEFREVKGEEYVYVTKHETGKSAIDVLASVTEVLTELTFPVNMHWANNSFEYIRPVHTLVVLLDDQALELDFLDIHSGRISRGHRFLGSDTEISSASSYEDDLRQQFVIADAKERQQMIVNQIHAIEEKKNISVEIDEDLLNEVLNLVEYPTAFLGSFDEKYLDVPEEVLVTSMKNHQRYFVVRDRDGKLLPNFISVRNGNAEHIENVIKGNEKVLVARLEDGEFFWQEDQKLNIADLVEKLKQVTFHEKIGSLYEHMDRVKVISQYLAEKADLSDEEKLAVLRAASIYKFDLLTGMVDEFDELQGIMGEKYALLAGEQPAVAAAIREHYMPTSADGELPETRVGAILALADKFDTLLSFFSVGLIPSGSNDPYALRRATQGIVRILEAFGWDIPLDELVTNLYGLSFASLDYANQKEVMAFISARIEKMIGSKVPKDIREAVLESDTYI | not soluble |
| MSLHTSHVIPAPRIDVWEWHTRPGAVFRLTPPFLPLRPLEQATSLAKGTTVFALPAGLRWEARHDLSGYIQHHRFTDVCINAPVKSLASWRHIHDFTDHPSGTLITDTVHTRAPRTTLSPAFAYRQHQLINDIQAQQRFYELTRSNPTESTPLTIGLTGSRGLVGRALTAQLTTLGHTVVQLVRGESKPHQRHWDPAHPAPNLLEGLDALIHLAGEPILGRFNDAHKADIRDSRIEPTRQLSQLVQKSSTCRTMVSASAIGYYGHARGDEILDEGSTQGDDFLASVCEEWEAASRTDATSNKRIVNIRTGVVMSGRGGMLPVLKAVFSVGLGGPFRGSNPWMSWIAIDDLCDIYIRAVLDPKLSGAINAVAPNPIKNQDFVDALAKELKRPAKMTISSLGPAILLGQQGAKELALADQRVQPRVLNNLDHHFRYVDIRSCLAHELGGENLLDI | not soluble |
| MVSKIIKLGVPTATLAVGTLLLGDDEKRSAFFRTASAFTQNHGHKTFDEHFPRGEWDKNWDFRDPISLVDKGKWEKADEEGKKKLIEEKKATATRNIFLIRHGQYHLDHEVKMLTPLGREQAELLGKRLANSDIKFTNMTMSTMVRATETANIILKHLPDDLTRTSSPFIEEGPPYPPVPDHKTWRPLDPEFYTEAARIESAYRKIFHRASPSQKEDSFELIVCHANVIRYFICRALQFPPEGWLRMSLGNCSLTWITIRPKGHVSVRSIGDIGHLPPNKISFT | not soluble |
| MAHHHHHHMPAVKQHLTGKASAAMRPTPSDAGAVLEPLTVRPSRVTTTTDHLTTSSAISTISVDTIRECGSAEDAYEAGKELGGVGPVFTGVAVPAEHPVAAAMPADAAELRHEEELKVIMCRYRPQSTEN | soluble |
| MGSDKIHHHHHHMDTQAFKQTLHKSDRYNRRGFGSANKRAQALAEAYQSGLIGSIRENGNLLEHGRLKVKLAEAFGFCWGVERSVAMAYETRKHYPNERIWITNEIIHNPSVNDHLRKMNVLFISEEKGVKDFSVVKDGDVVILPAFGATVQDMKLLHDRGCHIIDTTCPWVSKVWHTVEKHKKHTFTSIIHGKYKHEETLATSSFAGTYLVLFDLEEANYVSDYILGKGNREDFLKRFSKASSAGFDPDKDLQKVGVANQTTMLKSETEEIGRLFEKTMLQRFGPAQLNEHFLAINTICDATEERQGAMFSLVDEPLDLMVVIGGFNSSNTTHLQEIAISRGIRSFHIDTPERIGEETNTITHMPLEGGELLTEENFLQNGNISVGITSGASTPDRVVEDVIHKLMKIGENF | not soluble |
| MGHHHHHHSHMLLAASKVLDRLKPVIGVNTDPERSEGHLCLPVRYTHSFPEALQKFYRGEFRWLWRQRIRLYLEGTGINPVPVDLHEQQLSLNQHNRALNIERAHDERSEASGPQLLPVRALNEVFIGESLSSRASYYEISVDDGPWEKQKSSGLNLCTGTGSKAWSFNINRVATQAVEDVLNIAKRQGNLSLPLNRELVEKVTNEYNESLLYSPEEPKILFSIREPIANRVFSSSRQRCFSSKVCVRSRCWDACMVVDGGTSFEFNDGAIASMMINKEDELRTVLLEQ | not soluble |
